Experimental data from paper PMC9968290.

Legend:
[1] = molecular target: C-terminally truncated zebrafish ortholog of the TREK1 channel (drTREK1), residues 1-322, N95Q, N122Q (D. rerio (zebrafish)); test: native MS; TREK1 in 200 mM ammonium acetate pH 8, 0.25 mM DDM, without lipid or with 0.1 mg/ml POPA or 0.025 mg/ml POPE; static nanospray on a Q-Exactive EMR
[2] = molecular target: C-terminally truncated zebrafish ortholog of the TREK1 channel (drTREK1), residues 1-322, N95Q, N122Q (D. rerio (zebrafish)); test: cryo-EM structure; single particle cryo-EM of purified TREK1 at 3 mg/ml in DDM micelles (150 mM KCl, 20 mM Tris pH 8.0), without lipid or with POPA or POPE mixed micelles

stoichiometry N [1]: 2
stoichiometry N [2]: 2
Substance: C-terminally truncated zebrafish ortholog of the TREK1 channel (drTREK1), residues 1-322, N95Q, N122Q (natural protein)
